Experimental data from US20250388665A1 (ADAFRE BIOSCIENCES, published 2025).

What was measured:
human TNFα [1] = molecular target: T1, human TNFα (human, UniProt P01375 77-233, biotinylated in the Example 2 assay (sites not given)); assay: ELISA: Fab titrated on immobilized human TNFα, 2 h dissociation at pH 7.4 with 100 nM soluble TNFα, A450
T1 construct: also called biotinylated human TNFα; soluble TNFα
Procedure: (§1) A 96-well Costar-3366 plate was coated with 50 μL/well of 1 μg/mL human TNFα (Genscript cat. #Z01001) in PBS for one hour at room temperature. The plate was rinsed twice with PBS-T and blocked with 100 μL/well of 1% BSA in PBS (B-PBS) for 1 h at 25° C. Fab samples were serially diluted 3-fold starting at 40 nM in B-PBS and were incubated for 1 h at 25° C. (50 μL/well). The plate was washed four times with PBS-T and 50 µL/well of 100 nM human TNFα in 1% BSA was added for 2 h at 25° C. The plate was washed four times with PBS-T and 50 μL/well of anti-human kappa, HRP conjugate (Southern Biotech, Prod. #2060-05) diluted 5,000-fold in B-PBS was added for 1 h at 25° C. The plate was washed three times with PBS-T, then developed with 50 μL/well 1-Step Ultra TMB-ELISA (ThermoFisher Scientific, Prod. #34028). The reaction was terminated by the addition of 2 N H₂SO₄ and the A450 was determined before and after addition of H₂SO₄, respectively, using a Spectramax plate reader.
(§2) The ELISA method used to characterize these variants was described in Example 3.

murine TNFα = molecular target: T2, murine TNFα (murine, UniProt P06804 80-235, limits assumed, biotinylated (sites not given)); assay: ELISA: Fab captured via anti-human Fd, biotinylated murine TNFα titrated (x axis), prolonged dissociation at pH 7.4, A450
T2 construct: Bought reagent; also called biotinylated murine TNFα
T2 sequence (looked up): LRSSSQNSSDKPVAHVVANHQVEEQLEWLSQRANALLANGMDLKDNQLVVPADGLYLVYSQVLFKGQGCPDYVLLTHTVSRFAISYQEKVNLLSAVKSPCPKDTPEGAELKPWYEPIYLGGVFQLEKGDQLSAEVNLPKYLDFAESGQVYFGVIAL
Procedure: A 96-well Costar-3366 plate was coated with 50 μL/well of 2 μg/mL sheep anti-human Fd (Southern Biotech, Prod. #2046-01) in PBS for 1 hour at room temperature. The plate was washed four times with PBS containing 0.05% Tween 20 (PBS-T) and blocked with 100 μL/well of 1% BSA-PBS for 1 hour at room temperature. Block was removed and 50 μL/well of 0.5 ug/mL sample was added. Sample dilutions were performed with 1% BSA-PBS. The plate was washed four times with PBS containing 0.05% Tween 20 (PBS-T), then biotinylated murine (Acro biosystems) TNFα was serially diluted 3-fold starting at 30 nM in B-PBS and incubated for 1 h at 25° C. (50 μL/well). The plates were washed in 500 mL of PBS-T, pH 6.0 or PBS-T, pH 7.4 for 1 hour. PBS-T was removed from the plates every 10 minutes during this wash. The plates were then washed four times with PBS-T, and incubated with 50 μL/well of Neutravidin HRP (ThermoFisher Scientific, cat. #31030), diluted 2,000-fold in B-PBS for 1 h at 25° C. The plate was washed four times with PBS-T, then developed with 50 μL/well 1-Step Ultra TMB-ELISA (ThermoFisher Scientific, Prod. #34028). The reaction was terminated by the addition of 2 N H₂SO₄ and the A450 was determined before and after addition of H₂SO₄, respectively, using a Spectramax plate reader.

human TNFα [2] = molecular target: T1, human TNFα; assay: ELISA: Fab titrated on immobilized human TNFα, 2 h dissociation at pH 7.4 with 100 nM soluble TNFα, A450; remark: listed apart in the source
Procedure: as §1

human TNFα [3] = molecular target: T1, human TNFα; assay: ELISA: Fab titrated on immobilized human TNFα, 2 h dissociation at pH 7.4 with 100 nM soluble TNFα, A450 [cont.) C]
Procedure: as §1, §2

human TNFα [4] = molecular target: T1, human TNFα; assay: ELISA: Fab titrated on immobilized human TNFα, 2 h dissociation at pH 6.0 with 100 nM soluble TNFα, A450
Procedure: as §1, §2

T1 sequence (P01375 77-233 limits assumed): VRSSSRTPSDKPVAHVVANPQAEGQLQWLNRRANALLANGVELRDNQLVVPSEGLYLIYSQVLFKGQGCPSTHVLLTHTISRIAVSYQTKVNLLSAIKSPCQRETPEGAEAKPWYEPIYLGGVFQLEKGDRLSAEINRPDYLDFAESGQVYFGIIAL

Binder | EC50 (read off the curve) (human TNFα [1]) [pM] | binding result (murine TNFα) | EC50 (read off the curve) (human TNFα [4]) [pM] | further results
A1 VH2 (Fab, V domains shown, Fab: VH/VL joined to human kappa constant domain and human G1 CH1) VH: EVQLVESGGGLVQPGRSLRLSCAASGFTFDQYAMHWVRQAPGKGLEWVSAITWNSGHIDYADSVEGRFTISRDNAKNSLYLQMNSLRAEDTAVYYCAKVSYLPTAHHLDYWGQGTLVTVSS VL: not shown |  |  |  | binding result (human TNFα [1]): binds
AF-M2637 Fab (Fab, V domains shown, pH switch variant of Ab1; Fab: VH/VL joined to human kappa constant domain and human G1 CH1; also called control AF-M2637) VH: not shown VL: DIQMTQSPSSLSASVGDRVTITCRASQGIRNYLAWYQQKPGKAPKLLIYAASTLQSGVPSRFSGSGSGTDFTLTISSLQPEDVATYYCHHYHRAPYTFGQGTKVEIK | ~3000 | no binding (tested: log -7.5 M b-muTNF) |  | 
A1 VH3 (Fab, V domains shown, Fab: VH/VL joined to human kappa constant domain and human G1 CH1) VH: EVQLVESGGGLVQPGRSLRLSCAASGFTFDQYAMHWVRQAPGKGLEWVSAITWNSGHIDYADSVEGRFTISRDNAKNSLYLQMNSLRAEDTAVYYCAKVHYHPTASSLDYWGQGTLVTVSS VL: not shown | ~700 | binds |  | EC50 (read off the curve) (human TNFα [2]): ~2 nM
A1 VL7 (Fab, V domains shown, Fab: VH/VL joined to human kappa constant domain and human G1 CH1) VH: not shown VL: DIQMTQSPSSLSASVGDRVTITCRASQEIRNHLAWYQQKPGKAPKLLIYAASTLQSGVPSRFSGSGSGTDFTLTISSLQPEDVATYYCQRYNHAPYTFGQGTKVEIK |  | binds |  | EC50 (read off the curve) (human TNFα [3]): ~1 nM
A1 VL2 (Fab, V domains shown, Fab: VH/VL joined to human kappa constant domain and human G1 CH1) VH: not shown VL: DIQMTQSPSSLSASVGDRVTITCRASQEIRNYLAWYQQKPGKAPKLLIYAASTLQSGVPSRFSGSGSGTDFTLTISSLQPEDVATYYCQHYHRAPYTFGQGTKVEIK | ~400 |  | ~700 | 
A1 VL3 (Fab, V domains shown, Fab: VH/VL joined to human kappa constant domain and human G1 CH1) VH: not shown VL: DIQMTQSPSSLSASVGDRVTITCRASQEIRNYLAWYQQKPGKAPKLLIYAASTLQSGVPSRFSGSGSGTDFTLTISSLQPEDVATYYCQHYHRAPYHFGQGTKVEIK |  |  | ~900 | 
A1 VL4 (Fab, V domains shown, Fab: VH/VL joined to human kappa constant domain and human G1 CH1) VH: not shown VL: DIQMTQSPSSLSASVGDRVTITCRASQEIRNYLAWYQQKPGKAPKLLIYAASTLQSGVPSRFSGSGSGTDFTLTISSLQPEDVATYYCHHYHRAPYTFGQGTKVEIK |  |  | ~1000 | 
Ab4 Fab (Fab, V domains shown, Fab: VH/VL joined to human kappa constant domain and human G1 CH1) VH: EVQLVESGGGLVQPGGSLRLSCAASGYVFTDYGMNWVRQAPGKGLEWMGWINTYIGEPIYADSVKGRFTFSLDTSKSTAYLQMNSLRAEDTAVYYCARGYRSYAMDYWGQGTLVTVSS VL: DIQMTQSPSSLSASVGDRVTITCKASQNVGTNVAWYQQKPGKAPKALIYSASFLYSGVPYRFSGSGSGTDFTLTISSLQPEDFATYYCQQYNIYPLTFGQGTKVEIK |  | no binding (tested: log -7.5 M b-muTNF) |  | 
